Patent publication US20180072782A1 (UNIVERSITY OF GEORGIA RESEARCH FOUNDATION, published 2018)
Bridges are numbered along the chain shown (N, C = ends). [ ]: non-standard residue; d: D form. The star is where a group is joined. Biotin = O=C1N[C@H]2[C@H](CS[C@H]2CCCCC(=O)*)N1; S5 = C=CCCC[C@](C)(N)C(=O)O; AEEEA = NCCOCCOCCOCC(=O)O

B1: SCR2, scrambled stapled control peptide for WAHM2 (peptide)
peptide: {Biotin-AEEEA}-TRAILL[S5]ITK[S5]QNELK-NH2
modifications: staple 7-11; not fully specified
notes: Negative control; also called SCR peptides
B2: SCR1, scrambled stapled control peptide for WAHM1 (peptide)
peptide: {Biotin-AEEEA}-SRA[S5]LLI[S5]TKIQNELK-NH2
modifications: staple 4-8; not fully specified
notes: Negative control; also called scrambled control (SCR) peptide 1; SCR peptides

Molecular target: T1, Cytoplasmic FMR1-interacting protein 1 (CYFIP1), endogenous in MDA-MB-231 cells (human, UniProt Q7L576 1-1253)
T1 construct: Endogenous protein of a human breast cancer cell line, detected by western blot; also called SRA1
Test: avidin-biotin pull-down with biotinylated peptide from treated MDA-MB-231 cells, western blot
Protocol: Specially, to determine the physical interaction with individual peptides, MDA-MB-231 cells were pretreated with 10 μM biotin-labeled peptides for 24 hours and lysates were incubated with immobilized avidin resin overnight at 4° C. The pull down samples were subjected to SDS-PAGE followed by Western blot analysis.

T1 sequence (Q7L576 whole entry): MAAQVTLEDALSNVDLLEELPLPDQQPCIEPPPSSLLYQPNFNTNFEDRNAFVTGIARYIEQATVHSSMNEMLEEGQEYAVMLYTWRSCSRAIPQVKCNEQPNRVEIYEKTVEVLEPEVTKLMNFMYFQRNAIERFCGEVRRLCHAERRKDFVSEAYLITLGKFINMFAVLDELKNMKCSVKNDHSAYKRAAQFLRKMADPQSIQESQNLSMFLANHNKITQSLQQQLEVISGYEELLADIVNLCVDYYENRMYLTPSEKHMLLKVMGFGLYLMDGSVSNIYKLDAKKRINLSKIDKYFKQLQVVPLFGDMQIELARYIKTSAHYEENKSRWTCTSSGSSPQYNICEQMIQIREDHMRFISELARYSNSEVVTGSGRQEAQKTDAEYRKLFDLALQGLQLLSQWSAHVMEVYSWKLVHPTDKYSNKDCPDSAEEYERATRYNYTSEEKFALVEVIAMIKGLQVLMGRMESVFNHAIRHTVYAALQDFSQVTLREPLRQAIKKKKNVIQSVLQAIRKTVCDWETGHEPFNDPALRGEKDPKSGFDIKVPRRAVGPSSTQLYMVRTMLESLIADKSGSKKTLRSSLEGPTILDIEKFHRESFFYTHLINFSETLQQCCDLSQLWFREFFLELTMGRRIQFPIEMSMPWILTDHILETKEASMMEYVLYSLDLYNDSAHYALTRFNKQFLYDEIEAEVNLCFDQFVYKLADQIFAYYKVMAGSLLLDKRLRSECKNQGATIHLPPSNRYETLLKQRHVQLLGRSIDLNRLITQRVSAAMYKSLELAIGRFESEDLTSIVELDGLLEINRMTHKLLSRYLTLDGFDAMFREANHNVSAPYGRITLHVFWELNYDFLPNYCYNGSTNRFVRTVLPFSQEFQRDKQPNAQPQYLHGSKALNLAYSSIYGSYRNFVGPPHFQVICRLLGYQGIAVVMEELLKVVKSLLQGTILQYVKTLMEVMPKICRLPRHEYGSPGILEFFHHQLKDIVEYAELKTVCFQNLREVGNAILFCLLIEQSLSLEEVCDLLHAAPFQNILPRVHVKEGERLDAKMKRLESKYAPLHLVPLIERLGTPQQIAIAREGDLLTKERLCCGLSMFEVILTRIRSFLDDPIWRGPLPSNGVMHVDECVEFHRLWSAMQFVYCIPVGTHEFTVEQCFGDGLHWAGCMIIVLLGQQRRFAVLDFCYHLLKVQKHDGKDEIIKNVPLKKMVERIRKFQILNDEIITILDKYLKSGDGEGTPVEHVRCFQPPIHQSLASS

binding result	Binder
no binding (tested: 10 µM)	B1
no binding (tested: 10 µM)	B2
